In US20210380703A1 (RIGEL PHARMACEUTICALS, published 2021):

Experiments:
[1] = biological target: mouse ACVR2A (mouse, UniProt P27038 20-135, limits assumed); test: ELISA
Procedure, shortened: (§1)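 Monoclonal antibodies were first applied to human or mouse ACVR2A, alongside biotinylated goat anti-human kappa light chain (positive control) and human Fc (negative control); binding was then determined by ELISA.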

[2] = biological target: T1, human ACVR2A (human, UniProt P27037 20-135, limits assumed); test: ELISA
T1 construct: also called activin receptor, type II A
Procedure, shortened: as §1

[3] = biological target: T2, biotinylated goat anti-human kappa light chain; test: ELISA, positive control
T2 construct: positive control of the ELISA
Procedure, shortened: as §1
Note: test concentration or dose not given here.

Chain of mouse ACVR2A (P27038 20-135 limits assumed): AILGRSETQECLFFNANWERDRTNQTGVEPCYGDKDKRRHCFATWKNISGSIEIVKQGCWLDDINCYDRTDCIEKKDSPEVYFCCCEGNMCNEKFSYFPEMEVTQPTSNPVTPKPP
T1 sequence (P27037 20-135 limits assumed): as the sequence (P27038 20-135 limits assumed) above, with R20K, I73V counted along it

optical density [1] [OD] | optical density [2] [OD] | optical density [3] [OD] | Binder
3.56 | 3.63 | 3.2 | 375_D02 (antibody, V domains shown, Group II) VH: EVQLLESGGGLVQPGGSLRLSCAASGFTFSSYSMNWVRQAPGKGLEWVSNINYNGGYTSYADSVKGRFTISRDNSKNTLYLQMNSLRAEDTAVYYCARAATWHDTHLDYWGQGTLVTVSS VL: DIQMTQSPSSLSASVGDRVTITCRASQSILTYLNWYQQKPGKAPKLLIYAASSLQSGVPSRFSGSGSGTDFTLTISSLQPEDFATYYCQQSYELPLTFGGGTKVEIK
3.71 | 3.71 | 3.29 | 374_B07 (antibody, V domains shown, Group II) VH: EVQLLESGGGLVQPGGSLRLSCAASGFTFSSYGMHWVRQAPGKGLEWVSSINYNGGYKSYADSVKGRFTISRDNSKNTLYLQMNSLRAEDTAVYYCARAATWHDTHLDYWGQGTLVTVSS VL: DIQMTQSPSSLSASVGDRVTITCRASQSIISYLNWYQQKPGKAPKLLIYAATSLASGVPSRFSGSGSGTDFTLTISSLQPEDFATYYCQQSYESPLTFGGGTKVEIK
3.6 | 3.46 | 3.33 | 375_C10 (antibody, V domains shown, Group I) VH: EVQLLESGGGLVQPGGSLRLSCAASGFTFSSYGMHWVRQAPGKGLEWVASINYNGGYTSYADSVKGRFTISRDNSKNTLYLQMNSLRAEDTAVYYCARAANWHDTALDYWGQGTLVTVSS VL: not shown
3.43 | 3.33 | 3.27 | 375_G08 (antibody, V domains shown, Group II) VH: EVQLLESGGGLVQPGGSLRLSCAASGFTFSSYGMHWVRQAPGKGLEWVSGINYNGGYTSYADSVKGRFTISRDNSKNTLYLQMNSLRAEDTAVYYCARAATWHDTHLDYWGQGTLVTVSS VL: DIQMTQSPSSLSASVGDRVTITCRASQSISSYVNWYQQKPGKAPKLLIYAVTSRASGVPSRFSGSGSGTDFTLTISSLQPEDFATYYCQQSYSTPLTFGGGTKVEIK
3.26 | 3.26 | 3.18 | 374_H02 (antibody, V domains shown, Group II) VH: EVQLLESGGGLVQPGGSLRLSCAASGFTFSSYGMHWVRQAPGKGLEWVASINYNGGYTSYADSVKGRFTISRDNSKNTLYLQMNSLRAEDTAVYYCARAATWHDTHLDYWGQGTLVTVSS VL: DIQMTQSPSSLSASVGDRVTITCRASQSILSYVNWYQQKPGKAPKLLIYAATSLASGVPSRFSGSGSGTDFTLTISSLQPEDFATYYCQQSYDTPLTFGGGTKVEIK
3.24 | 3 | 3.16 | 375_C03 (antibody, V domains shown, Group II) VH: EVQLLESGGGLVQPGGSLRLSCAASGFTFDSYSMHWVRQAPGKGLEWVSGINYNGGYTSYADSVKGRFTISRDNSKNTLYLQMNSLRAEDTAVYYCARAATWHDTHLDYWGQGTLVTVSS VL: DIQMTQSPSSLSASVGDRVTITCRASQSILSYVNWYQQKPGKAPKLVIYAATSRASGVPSRFSGSGSGTDFTLTISSLQPEDFATYYCQQSYESPLTFGGGTKVEIK
3.62 | 3.53 | 3.23 | 374_F03 (antibody, V domains shown, Group I) VH: EVQLLESGGGLVQPGGSLRLSCAASGFTFSSYGMNWVRQAPGKGLEWVASINYNGGYTSYADSVKGRFTISRDNSKNTLYLQMNSLRAEDTAVYYCARAANWHDTHLDYWGQGTLVTVSS VL: DIQMTQSPSSLSASVGDRVTITCRASQSIISYVNWYQQKPGKAPKLVIYAATSRASGVPSRFSGSGSGTDFTLTISSLQPEDFATYYCQQSYDTPLTFGGGTKVEIK
3.37 | 3.14 | 2.92 | 374_B01 (antibody, V domains shown, Group II) VH: EVQLLESGGGLVQPGGSLRLSCAASGFTFDSYGMHWVRQAPGKGLEWVAGINYNSGYTSYADSVKGRFTISRDNSKNTLYLQMNSLRAEDTAVYYCARAATWHDTHLDYWGQGTLVTVSS VL: DIQMTQSPSSLSASVGDRVTITCRASQSILSYLNWYQQKPGKAPKLLIYAASSLQSGVPSRFSGSGSGTDFTLTISSLQPEDFATYYCQQSYDSPLTFGGGTKVEIK
3.14 | 2.95 | 3.17 | 375_F12 (antibody, V domains shown, Group I) VH: EVQLLESGGGLVQPGGSLRLSCAASGFTFDSYGMHWVRQAPGKGLEWVASINYNGGYTSYADSVKGRFTISRDNSKNTLYLQMNSLRAEDTAVYYCARAANWHDTALDYWGQGTLVTVSS VL: DIQMTQSPSSLSASVGDRVTITCRASQSILTYLNWYQQKPGKAPKLVIYAATSRASGVPSRFSGSGSGTDFTLTISSLQPEDFATYYCQQSDELPLTFGGGTKVEIK
3.54 | 3.42 | 3.02 | 374_B02 (antibody, V domains shown, Group I) VH: EVQLLESGGGLVQPGGSLRLSCAASGFTFDSYSMHWVRQAPGKGLEWVAGINYNSGYTSYADSVKGRFTISRDNSKNTLYLQMNSLRAEDTAVYYCARAANWHDTHLDYWGQGTLVTVSS VL: DIQMTQSPSSLSASVGDRVTITCRASQSIISYLNWYQQKPGKAPKLLIYAATSRASGVPSRFSGSGSGTDFTLTISSLQPEDFATYYCQQSYDSPLTFGGGTKVEIK

Continued, binder first:

Binder | optical density [1] [OD] | optical density [2] [OD] | optical density [3] [OD]
372_A09 (antibody, V domains shown, Group I) VH: EVQLLESGGGLVQPGGSLRLSCAASGFTFDSYGMNWVRQAPGKGLEWVSGINYNGGYTSYADSVKGRFTISRDNSKNTLYLQMNSLRAEDTAVYYCARAANWHDTALDYWGQGTLVTVSS VL: DIQMTQSPSSLSASVGDRVTITCRASQSILSYLNWYQQKPGKAPKLVIYAATSRASGVPSRFSGSGSGTDFTLTISSLQPEDFATYYCQQSYNSPLTFGGGTKVEIK | 2.56 | 2.43 | 3.5
373_B01 (antibody, V domains shown, Group II) VH: EVQLLESGGGLVQPGGSLRLSCAASGFTFDSYGMHWVRQAPGKGLEWVSGINYNGGYKSYADSVKGRFTISRDNSKNTLYLQMNSLRAEDTAVYYCARAATWHDTHLDYWGQGTLVTVSS VL: DIQMTQSPSSLSASVGDRVTITCRASQSILSYVNWYQQKPGKAPKLVIYAATSRASGVPSRFSGSGSGTDFTLTISSLQPEDFATYYCQQSYDLPLTFGGGTKVEIK | 3.58 | 3.26 | 3.11
374_A12 (antibody, V domains shown, Group II) VH: EVQLLESGGGLVQPGGSLRLSCAASGFTFDSYGMHWVRQAPGKGLEWVSSINYNGGYTSYADSVKGRFTISRDNSKNTLYLQMNSLRAEDTAVYYCARAATWHDTHLDYWGQGTLVTVSS VL: DIQMTQSPSSLSASVGDRVTITCRASQSILTYLNWYQQKPGKAPKLLIYAATSRASGVPSRFSGSGSGTDFTLTISSLQPEDFATYYCQQSDSNPLTFGGGTKVEIK | 3.26 | 3.31 | 3.06
373_G06 (antibody, V domains shown, Group II) VH: EVQLLESGGGLVQPGGSLRLSCAASGFTFSSYGMHWVRQAPGKGLEWVASINYNSGYTGYADSVKGRFTISRDNSKNTLYLQMNSLRAEDTAVYYCARAATWHDTHLDYWGQGTLVTVSS VL: DIQMTQSPSSLSASVGDRVTITCRASQSILSYVNWYQQKPGKAPKLLIYAATSLASGVPSRFSGSGSGTDFTLTISSLQPEDFATYYCQQSYNLPLTFGGGTKVEIK | 3.52 | 3.4 | 3.23
372_D07 (antibody, V domains shown, Group II) VH: EVQLLESGGGLVQPGGSLRLSCAASGFTFSSYGMNWVRQAPGKGLEWVAGINYNGGYTSYADSVKGRFTISRDNSKNTLYLQMNSLRAEDTAVYYCARAATWHDTHLDYWGQGTLVTVSS VL: DIQMTQSPSSLSASVGDRVTITCRASQSILSYLNWYQQKPGKAPKLLIYAATSRASGVPSRFSGSGSGTDFTLTISSLQPEDFATYYCQQSYESPLTFGGGTKVEIK | 2.99 | 2.68 | 3.7
373_D11 (antibody, V domains shown, Group II) VH: EVQLLESGGGLVQPGGSLRLSCAASGFTFSSYGMHWVRQAPGKGLEWVAGINYNGGYTSYADSVKGRFTISRDNSKNTLYLQMNSLRAEDTAVYYCARAATWHDTHLDYWGQGTLVTVSS VL: DIQMTQSPSSLSASVGDRVTITCRASQSILTYVNWYQQKPGKAPKLLIYAATSRASGVPSRFSGSGSGTDFTLTISSLQPEDFATYYCQQSYDNPLTFGGGTKVEIK | 3.55 | 3.57 | 3.2
372_E02 (antibody, V domains shown, Group I) VH: EVQLLESGGGLVQPGGSLRLSCAASGFTFSSYGMNWVRQAPGKGLEWVASINYNGGYTSYADSVKGRFTISRDNSKNTLYLQMNSLRAEDTAVYYCARAANWHDTALDYWGQGTLVTVSS VL: DIQMTQSPSSLSASVGDRVTITCRASQSIISYVNWYQQKPGKAPKLVIYAATSRASGVPSRFSGSGSGTDFTLTISSLQPEDFATYYCQQSYDLPLTFGGGTKVEIK | 2.74 | 2.84 | 3.58
372_B11 (antibody, V domains shown, Group I) VH: EVQLLESGGGLVQPGGSLRLSCAASGFTFSSYSMHWVRQAPGKGLEWVAGINYNSGYTSYADSVKGRFTISRDNSKNTLYLQMNSLRAEDTAVYYCARAANWHDTHLDYWGQGTLVTVSS VL: DIQMTQSPSSLSASVGDRVTITCRASQSILTYVNWYQQKPGKAPKLVIYAATSLASGVPSRFSGSGSGTDFTLTISSLQPEDFATYYCQQSYDTPLTFGGGTKVEIK | 2.58 | 2.31 | 3.73
373_E11 (antibody, V domains shown, Group I) VH: EVQLLESGGGLVQPGGSLRLSCAASGFTFDSYGMHWVRQAPGKGLEWVASINYNGGYTSYADSVKGRFTISRDNSKNTLYLQMNSLRAEDTAVYYCARAANWHDTALDYWGQGTLVTVSS VL: DIQMTQSPSSLSASVGDRVTITCRASQSIVSYLNWYQQKPGKAPKLVIYAATSRASGVPSRFSGSGSGTDFTLTISSLQPEDFATYYCQQSYDSPLTFGGGTKVEIK | 3.36 | 3.3 | 3.17
